Results from paper PMC4352707.

Biological target: Cry1 (UniProt P97784)
Experiment: co-IP, immunoblot
Settings: reference: wild-type Hausp; sites S18

binding against the reference: stronger
Substance: Hausp (Usp7), Hausp-V5 (from UniProt Q93009) Hausp S18A
